Reference: US8242083B2, “Kinase substrates” (PerkinElmer Health Sciences, Inc., priority 2008, dated 2012)

Experiments:
Assay type in all cases: biochemical
FYN = FYN (Homo sapiens, UniProt P06241); experiment: TR-FRET kinase assay, FYN; conditions: Kinase Concentration 0.25 nM; 50 nM ULight-labeled substrate, 200 micromolar ATP, 2 hours
Experimental: (§1) TR-FRET kinase assays are performed under standardized conditions: various individual kinases are incubated with 50 nM of kinase substrate BRB1 labeled with the TR-FRET acceptor dye ULight (PerkinElmer) and 200 micromolar ATP in 10 μL of kinase assay buffer (50 mM HEPES pH7.5, 10 mM MgCl2, 3 mM MnCl2, 1 mM EGTA, 2 mM DTT and 0.01% Tween-20) for 2 hours at room temperature. Reactions are stopped with EDTA, and anti-phospho-tyrosine antibodies (clone PT66) labeled with the TR-FRET europium chelate donor dye are added to a final concentration of 2 nM in a final volume of 20 μL. The TR-FRET signal emitted at 665 nm is read one hour after the addition of antibodies using a TR-FRET plate reader such as the Envision® Multilabel Plate reader (PerkinElmer). The emitted signal at 665 nm is proportional to the extent of peptide phosphorylation, Control reactions indicative of background are performed excluding ATP from the reaction.
(§2) Assay conditions are identical to those used described for FIG. 1.

Eph4A tyrosine kinase = Eph4A tyrosine kinase (Homo sapiens, UniProt P54764); experiment: Stability of TR-FRET signal at 665 nm in kinase assay; conditions: for Average Signal at 665 nm: Eph4A 2 nM, 50 nM labeled peptide or 200 nM labeled co-polymer, 50 micromolar ATP
Experimental: as §1
An assay comparing the stability of the random co-polymers poly-EAY, poly-EY and peptide BRB1 (SEQ ID No.3) is performed in 384-well format. Assay conditions are similar to those used in Example 1. The Eph4A tyrosine kinase is assayed at 2 nM with 50 nM of labeled peptide of SEQ ID No. 3, 200 nM labeled poly-EY or 200 nM poly-EAY and 50 micromolar ATP in 10 μL of kinase assay buffer. The reaction mixture is incubated for one hour at room temperature. Reactions are stopped with EDTA, and anti-phospho-tyrosine antibodies (clone PT66) labeled with the TR-FRET europium chelate donor dye are added to a concentration of 2 nM in a final volume of 20 μL. The TR-FRET signal emitted at 665 nm is read one, two, four, 18 and 24 hours after the addition of antibodies using a TR-FRET plate reader.

EphB1 = target: T1, EphB1 (Homo sapiens, UniProt P54762); experiment: TR-FRET kinase assay, EphB1; conditions: Kinase Concentration 0.5 nM; 50 nM ULight-labeled substrate, 200 micromolar ATP, 2 hours
T1 sequence (P54762 18-984): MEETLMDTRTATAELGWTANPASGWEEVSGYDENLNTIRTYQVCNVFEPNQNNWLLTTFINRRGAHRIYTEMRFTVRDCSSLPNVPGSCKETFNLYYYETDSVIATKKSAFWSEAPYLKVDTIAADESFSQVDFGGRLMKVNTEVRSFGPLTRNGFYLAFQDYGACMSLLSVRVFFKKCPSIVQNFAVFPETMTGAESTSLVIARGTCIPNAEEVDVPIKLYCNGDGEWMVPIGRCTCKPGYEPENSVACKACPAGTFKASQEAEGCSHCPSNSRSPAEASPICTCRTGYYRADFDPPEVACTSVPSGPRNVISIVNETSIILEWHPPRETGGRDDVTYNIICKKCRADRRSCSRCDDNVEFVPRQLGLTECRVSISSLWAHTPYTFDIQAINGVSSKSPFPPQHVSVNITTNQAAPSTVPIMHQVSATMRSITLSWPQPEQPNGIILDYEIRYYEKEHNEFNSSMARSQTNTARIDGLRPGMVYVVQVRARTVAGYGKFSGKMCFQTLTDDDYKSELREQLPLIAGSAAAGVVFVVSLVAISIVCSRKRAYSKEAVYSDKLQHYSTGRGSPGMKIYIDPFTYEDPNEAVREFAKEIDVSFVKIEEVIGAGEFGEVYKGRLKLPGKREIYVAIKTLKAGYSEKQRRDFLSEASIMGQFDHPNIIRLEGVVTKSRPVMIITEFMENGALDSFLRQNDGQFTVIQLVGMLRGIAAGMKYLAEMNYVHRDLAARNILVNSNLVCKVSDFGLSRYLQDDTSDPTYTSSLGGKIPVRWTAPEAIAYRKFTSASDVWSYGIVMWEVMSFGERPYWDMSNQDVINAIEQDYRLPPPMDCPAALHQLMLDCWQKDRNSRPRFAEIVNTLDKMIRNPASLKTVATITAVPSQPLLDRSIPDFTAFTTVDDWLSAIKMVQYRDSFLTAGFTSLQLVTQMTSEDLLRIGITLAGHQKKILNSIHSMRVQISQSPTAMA
Experimental: as §1, §2

TNK1 = target: T2, TNK1 (Homo sapiens, UniProt Q13470); experiment: TR-FRET kinase assay, TNK1; conditions: Kinase Concentration 1 nM; 50 nM ULight-labeled substrate, 200 micromolar ATP, 2 hours
T2 sequence (Q13470 1-666): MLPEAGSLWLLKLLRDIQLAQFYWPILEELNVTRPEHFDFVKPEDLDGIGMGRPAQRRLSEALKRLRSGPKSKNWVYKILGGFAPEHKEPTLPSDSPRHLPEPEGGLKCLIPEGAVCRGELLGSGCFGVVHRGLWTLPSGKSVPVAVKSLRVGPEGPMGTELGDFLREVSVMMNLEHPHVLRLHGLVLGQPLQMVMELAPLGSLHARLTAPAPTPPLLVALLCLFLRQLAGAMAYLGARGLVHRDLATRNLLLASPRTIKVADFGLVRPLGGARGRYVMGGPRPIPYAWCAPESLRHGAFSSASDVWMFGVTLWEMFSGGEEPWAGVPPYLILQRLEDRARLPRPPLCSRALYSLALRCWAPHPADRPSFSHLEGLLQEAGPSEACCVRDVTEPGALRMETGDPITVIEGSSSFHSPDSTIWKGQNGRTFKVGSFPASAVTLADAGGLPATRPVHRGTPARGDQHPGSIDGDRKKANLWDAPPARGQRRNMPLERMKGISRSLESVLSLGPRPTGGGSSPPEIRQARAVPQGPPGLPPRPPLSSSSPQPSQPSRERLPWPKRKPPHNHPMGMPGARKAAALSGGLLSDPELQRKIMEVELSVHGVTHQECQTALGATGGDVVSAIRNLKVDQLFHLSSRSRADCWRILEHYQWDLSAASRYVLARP
Experimental: as §1, §2

Chain of Eph4A tyrosine kinase (P54764 20-986): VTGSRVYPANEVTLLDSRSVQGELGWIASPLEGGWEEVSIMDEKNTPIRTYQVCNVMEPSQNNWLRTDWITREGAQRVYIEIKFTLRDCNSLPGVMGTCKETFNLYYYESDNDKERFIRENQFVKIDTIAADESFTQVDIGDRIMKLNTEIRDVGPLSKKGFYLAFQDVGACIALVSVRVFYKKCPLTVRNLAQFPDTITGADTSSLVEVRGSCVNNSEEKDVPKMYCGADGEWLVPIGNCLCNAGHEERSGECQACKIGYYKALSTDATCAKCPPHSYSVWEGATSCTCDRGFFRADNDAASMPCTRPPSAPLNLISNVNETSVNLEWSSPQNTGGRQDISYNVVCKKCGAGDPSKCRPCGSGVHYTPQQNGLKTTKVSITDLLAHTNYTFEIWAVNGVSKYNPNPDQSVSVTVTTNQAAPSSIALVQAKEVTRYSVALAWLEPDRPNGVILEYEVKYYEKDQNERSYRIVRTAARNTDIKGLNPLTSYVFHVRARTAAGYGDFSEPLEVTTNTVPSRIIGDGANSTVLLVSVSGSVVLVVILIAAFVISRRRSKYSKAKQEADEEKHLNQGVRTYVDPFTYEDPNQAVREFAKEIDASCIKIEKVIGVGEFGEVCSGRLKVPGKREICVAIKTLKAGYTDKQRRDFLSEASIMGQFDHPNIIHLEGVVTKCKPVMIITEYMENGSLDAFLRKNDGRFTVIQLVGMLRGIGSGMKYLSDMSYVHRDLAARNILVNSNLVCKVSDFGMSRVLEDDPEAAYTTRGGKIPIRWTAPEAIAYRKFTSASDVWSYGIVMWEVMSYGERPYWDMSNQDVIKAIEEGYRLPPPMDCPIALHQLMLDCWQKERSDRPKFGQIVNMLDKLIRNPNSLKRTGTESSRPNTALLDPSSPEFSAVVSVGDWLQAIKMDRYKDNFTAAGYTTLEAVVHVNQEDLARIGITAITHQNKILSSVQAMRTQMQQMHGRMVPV
Chain of FYN (P06241 whole entry, species assumed): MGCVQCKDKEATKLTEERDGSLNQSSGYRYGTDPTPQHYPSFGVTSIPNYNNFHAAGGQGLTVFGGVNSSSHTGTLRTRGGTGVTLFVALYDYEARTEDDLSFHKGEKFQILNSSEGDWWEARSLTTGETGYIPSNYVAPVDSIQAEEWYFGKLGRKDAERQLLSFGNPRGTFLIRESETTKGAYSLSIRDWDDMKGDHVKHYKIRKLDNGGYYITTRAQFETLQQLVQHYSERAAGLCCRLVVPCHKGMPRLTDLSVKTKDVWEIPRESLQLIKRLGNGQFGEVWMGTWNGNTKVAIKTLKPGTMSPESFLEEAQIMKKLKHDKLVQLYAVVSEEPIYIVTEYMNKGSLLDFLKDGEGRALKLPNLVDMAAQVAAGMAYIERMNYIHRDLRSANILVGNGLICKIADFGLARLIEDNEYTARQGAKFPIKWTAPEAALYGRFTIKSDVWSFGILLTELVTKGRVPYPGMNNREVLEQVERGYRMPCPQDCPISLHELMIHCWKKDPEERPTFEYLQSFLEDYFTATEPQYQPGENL

C AYE AYE AYE K EYA EYA EYA K AYA EYE R (CAYEAYEAYEKEYAEYAEYAKAYAEYER; tyrosine kinase substrate peptide) [BRB1]
Signal to Noise ratio with BRB1 Peptide (FYN): 25.9
Average Signal at 665 nm (Eph4A tyrosine kinase; Incubation 1 h after addition of antibodies): 134156
Average Signal at 665 nm (Eph4A tyrosine kinase; Incubation 18 h after addition of antibodies): 117226
% Decrease of average signal at 665 nm (Eph4A tyrosine kinase; Incubation 18 h versus 1 h): 12.6%
Average Signal at 665 nm (Eph4A tyrosine kinase; Incubation 24 h after addition of antibodies): 115534
% Decrease of average signal at 665 nm (Eph4A tyrosine kinase; Incubation 24 h versus 1 h): 13.9%
% Decrease of average signal at 665 nm (Eph4A tyrosine kinase; Incubation 24 h versus 1 h, listed as SEQ ID No. 3): 14%
Stability of specific TR-FRET signal at 665 nm over time (Eph4A tyrosine kinase; after addition of europium-labeled anti-phospho-tyrosine antibody): more stable
Signal to Noise ratio with BRB1 Peptide (EphB1): 29.9
Signal to Noise ratio with BRB1 Peptide (TNK1): 6.8
